Experimental findings from patent publication US8604172B2, “Humanized antibody compositions and methods for binding lysophosphatidic acid” (Lpath, Inc., priority 2009, dated 2013) are described below.

What is called Kd is the equilibrium constant for the complex coming apart.

The test system of data set [1] is IL-8 in Caki-1 cells. The data set can be described thus: LPA-induced IL-8 production in Caki-1 cells. The following applies: 18:1 LPA (0.2 mM), 0.1-30 μg/mL mAb, 24 h. In kind it is cell-based, human. How it is done:
Three anti-LPA mAbs (B3, B7 and B58) were tested for their abilities to reduce in vitro IL-8 production compared to a non-specific antibody (NS). Caki-1 cells were seeded in 96 well plates and grown to confluency. After overnight serum starvation, cells were treated with 18:1 LPA (0.2 mM) with or without anti-LPA mAb B3, B7, B58 or NS (Non-Specific). After 24 h, cultured supernatants of renal cancer cells (Caki-1), treated with or without LPA and in presence of increasing concentrations of the anti-LPA mAbs B3, B7 and B58, were collected and analyzed for IL-8 levels using a commercially available ELISA kit (Human Quantikine Kit, R&D Systems, Minneapolis, Minn.). […] The inhibition of IL-8 release by the anti-LPA mAbs was also observed in other cancerous cell lines such as the pancreatic cell line Panc-1.

Data set [2] is described as follows: BiaCore surface plasmon resonance and direct binding ELISA of LT3000. The text has this: The murine antibody is a full-length IgG1k isotype antibody composed of two identical light chains and two identical heavy chains with a total molecular weight of 155.5 kDa.
Background: SPR reads the build-up and loss of mass on a sensor chip optically.

The nature of data set [3]: Safety, 7 day intravenous injection. In kind it is in vivo, C57BL/6N mice. The following applies: for triglycerides / liver weights: mean±SD; for triglycerides: in mg/dL (unit assumed); for liver weights: in g (unit assumed). The text has this:
Objective. This study assessed the safety of Lpathomab following intravenous injection of the antibody. C57BL/6N mice received Lpathomab (LT3000) for 7 consecutive days followed by a 7 day recovery period for selected animals of each treatment (recovery groups). Blood samples were collected and processed for multiple study parameters including classical hematology, coagulation time and clinical chemistry. Selected organs were weighed and compared with vehicle only controls.
Study design. Once a day, single iv bolus injections of Lpathomab or vehicle control were given at the following doses: 0, 30, 60, 120, and 240 mg/kg. […] For each animal, necropsy consisted of an external examination, including identification of all clinically recorded lesions, as well as a detailed internal examination.

A short description of data set [4]: LPA competition ELISA (C18:0 LPA coat). In kind it is binding. The settings on record: LPC, PA, 14:0 and 18:1 LPA, cPA, PC. How it is done: The specificity of the humanized antibody was determined by competition ELISA. C18:0 LPA coating material was diluted to 0.33 ug/ml with carbonate buffer (100 mM NaHCO3, 33.6 mM Na2CO3, pH 9.5). Plates were coated with 100 ul/well of coating solution and incubated at 37° C. for 1 hour. The plates were washed 4 times with PBS ([…], pH 7.4) and blocked with 150 ul/well of PBS, 1% BSA, 0.1% tween-20 for 1 h at room temperature. The humanized, anti-LPA antibodies were tested against lipid competitors (14:0 LPA (Avanti, Cat. No 857120), 18:1 LPA (Avanti, Cat. No 857130), 18:1 LPC (Avanti, Cat. No 845875), cLPA (Avanti, Cat. No 857328), 18:1 PA (Avanti, Cat. No 840875), PC (Avanti, Cat. No 850454) at 5 uM, 2.5 uM, 1.25 uM, 0.625 uM, and 0.0 uM. The antibody was diluted to 0.5 ug/ml in PBS, 0.1% tween-20 and combined with the lipid samples at a 1:3 ratio of antibody to sample on a non-binding plate. The plates were washed 4 times with PBS and incubated for 1 hour at room temperature with 100 ul/well of the primary antibody/lipid complex. Next the plates were washed 4 times with PBS and incubated for 1 h at room temperature with 100 […] of HRP-conjugated goat anti-human antibody diluted 1:20,000 in PBS, 1% BSA, 0.1% tween-20. […] The optical density (OD) was measured at 450 nm using a Thermo Multiskan EX. […]
In general terms: An ELISA detects its analyte on a solid surface through an enzyme-linked reagent.

Data set [5] has as its system IL-6 release in SKOV3 cells. Briefly: LPA-induced IL-6 release in SKOV3 cells. The format is cell-based, human. The settings on record: Lpathomab 600 μg/mL; 1 μM 18:1 LPA; n = 3. How it is done:
Anti-LPA antibodies inhibit the LPA-dependant release of human CXCL8/IL-8 in conditioned media of SKOV3 ovarian cells. SKOV3 cells (Lot No 4255558, passage 14) were harvested with 2 ml of 1× Trypsin EDTA (Mediatech Inc, Cat. No 25-053-CV) and resuspended in 8 ml of complete medium (10% FBS, Mediatech Inc. Cat. no 35-011-CV). The cells were centrifuged for 5 min ([…]) and re-suspended in 5 ml of complete medium. Cells were counted in duplicate with 0.4% Trypan blue (10 ul cells plus 90 ul Trypan blue, Invitrogen, Cat. No 15250-061) using a hemocytometer. In a 96-well plate, 1×10^5 cells per well were seeded (final volume 100 ul/well). The cells were allowed to attach and form a confluent monolayer by incubating overnight at 37° C. On the following day, cells were gently washed two times with minimum media (1 mg/ml BSA in McCoy's medium with L-glutamine, Mediatech, Cat. No 10-050-CV). […] The CXCL8/IL-8 levels in each supernatant were measured using the Quantikine human CXCL8/IL-8 ELISA kit according to vendor instructions (R&D Systems, Minneapolis Minn., Cat. No D8000C). The IL-6 levels were measured by ELISA using the Quantikine human IL-6 immunoassay kit (R&D systems, Cat. No. D6050). Data were analyzed by one-way ANOVA followed by Bonferroni's post test and expressed as human IL-8 or human IL-6 fold increase.

Data set [6] deals with neovascularization. Briefly: Classical angiogenesis models. In kind it is in vivo. The settings on record: two classical angiogenesis models.
[7] abbreviates: 30-240 mg/kg iv daily x 7 vs control.

Marks after values point to notes of the source that are not given here.

B1: LT3000: Murine anti-LPA monoclonal antibody clone B7, IgG1k, renamed Lpathomab, also known as LT3000; hybridoma 504B7.1, ATCC PTA-8420 (antibody, V domains shown)
VH: QVQLQQSGAELVRPGTSVKVSCKASGYGFINYLIEWIKQRPGQGLEWIGLINPGSDYTNYNENFKGKATLTADKSSSTAYMHLSSLTSEDSAVYFCARRFGYYGSGNYFDYWGQGTTLTVSS
VL: DVVMTQTPLSLPVSLGDQASISCTSGQSLVHINGNTYLHWYLQKPGQSPKLLIYKVSNLFSGVPDRFSGSGSGTDFTLKISRVEAEDLGVYFCSQSTHFPFTFGTGTKLEIK
B1: in data set [1], the IL-8 expression entry was “significantly reduced in a dose-dependent manner”. The molecule further displayed a Kd in data set [2] of 0.001 to 0.05 nM. Further, the “weights of brains, hearts, lungs, pituitary glands, ovaries, spleens, testes, thymus glands, thyroid or uterus” value in data set [3] (30-240 mg/kg iv daily x 7) is “No changes were observed”. The “glucose, cholesterol, ALT or other CBC parameters” value in data set [3] (setting [7]) was “no statistically significant reductions”. Further, the hematology parameters result in data set [3] (setting [7]) is recorded as “no significant differences”. For the same molecule, the triglycerides amounted to 36±8 in data set [3] (female mice, 120 mg/kg iv daily x 7, vehicle 89±17); 46±18 in data set [3] (female mice, 240 mg/kg iv daily x 7, vehicle 89±17); 50±8 in data set [3] (male mice, 240 mg/kg iv daily x 7, vehicle 133±24). For the same molecule, the liver weights is on record as 0.89±0.26 in data set [3] (female mice, 240 mg/kg, vehicle 1.2±0.27); 1.03±0.07 in data set [3] (male mice, 60 mg/kg, vehicle 1.28±0.06); 1.08±0.11 in data set [3] (male mice, 120 mg/kg, vehicle 1.28±0.06); 1.11±0.11 in data set [3] (male mice, 240 mg/kg, vehicle 1.28±0.06). In data set [4], the cross-reactivity entry is recorded as “no cross-reactivity”. In addition, the “IL-6 Release, % Inhibition (over LPA taken as 100)” value in data set [5] is on record as 23* %. Further, the neovascularization result in data set [6] is listed as “inhibited”.
